Reference: PMC6494814, “Kremen1-induced cell death is regulated by homo- and heterodimerization” (Cell Death Discovery, 2019)

B1: HA-Krm1secECD, secreted ectodomain of Krm1 (lacks the transmembrane and intracellular domains) (domain or fragment, UniProt Q99N43 21-392, looked up)
chain: RPAPGPRSGPECFTANGADYRGTQSWTALQGGKPCLFWNETFQHPYNTLKYPNGEGGLGEHNYCRNPDGDVSPWCYVAEHEDGVYWKYCEIPACQMPGNLGCYKDHGNPPPLTGTSKTSNKLTIQTCISFCRSQRFKFAGMESGYACFCGNNPDYWKHGEAASTECNSVCFGDHTQPCGGDGRIILFDTLVGACGGNYSAMAAVVYSPDFPDTYATGRVCYWTIRVPGASRIHFNFTLFDIRDSADMVELLDGYTHRVLVRLSGRSRPPLSFNVSLDFVILYFFSDRINQAQGFAVLYQATKEEPPQERPAVNQTLAEVITEQANLSVSAAHSSKVLYVITPSPSHPPQTAPGSHSWAPSVGANSHRVEGWT
B2: Kremen1 (Krm1), full length, Flag-tagged or HA-tagged (receptor, UniProt Q99N43 20-473, looked up)
chain: ARPAPGPRSGPECFTANGADYRGTQSWTALQGGKPCLFWNETFQHPYNTLKYPNGEGGLGEHNYCRNPDGDVSPWCYVAEHEDGVYWKYCEIPACQMPGNLGCYKDHGNPPPLTGTSKTSNKLTIQTCISFCRSQRFKFAGMESGYACFCGNNPDYWKHGEAASTECNSVCFGDHTQPCGGDGRIILFDTLVGACGGNYSAMAAVVYSPDFPDTYATGRVCYWTIRVPGASRIHFNFTLFDIRDSADMVELLDGYTHRVLVRLSGRSRPPLSFNVSLDFVILYFFSDRINQAQGFAVLYQATKEEPPQERPAVNQTLAEVITEQANLSVSAAHSSKVLYVITPSPSHPPQTAPGSHSWAPSVGANSHRVEGWTVYGLATLLILTVTAVVAKILLHVTFKSHRVPASGDLRDCRQPGASGDIWTIFYEPSTTISIFKKKLKGQSQQDDRNPLVSD
notes: Kremen1 (Krm1), transmembrane receptor, full length; Two differently tagged copies of the same full-length protein (Flag-Krm1, HA-Krm1), each with ONE tag, written as one molecule for the self-association; In rows with truncated Krm1 or with Krm2 the Flag-tagged copy is the bait; Vector pCAG-IRES-EGFP or pCS2; also called Flag-Krm1; HA-Krm1; source: HEK293T, transfected, in lysate; not shown: …

Experiments:
[1] = target: B2; assay: cell-based or functional assay
[2] = target: the molecule itself; assay: cross-linking; HEK293T cells transfected with HA-Krm1 and Flag-Krm1, 0.2 mM BS3 (non cell-permeant) on ice for 30 min prior to lysis; straight western blots and anti-Flag immunoprecipitation with anti-HA blot

For B1, the “proportion of cleaved Caspase-3+ cells among HA+ HEK293T cells transfected with HA-Krm1 and either GFP or Krm1secECD; the pair interfered with is Krm1 with Krm1 (dimerization)” value [1] was 2 fold decrease.

For B2, the “stoichiometry N” value [2] was 2.
